Assay results taken from publication PMC2922928 (Nature structural & molecular biology, 2010).

Experiments:
Experiment in all cases: ELISA
[1] = molecular target: His-tagged p53 purified from bacteria (human, UniProt P04637 1-393)
[2] = molecular target: Flag-p53 purified from insect cells (unacetylated) (human, UniProt P04637 1-393)
[3] = molecular target: His-tagged p53(ΔC30) purified from bacteria (human, UniProt P04637 1-363)

Measured: binding result

B1: untagged Mdm2(10–139) (domain or fragment)
chain: GSMTDGAVTTSQIPASEQETLVRPKPLLLKLLKSVGAQKDTYTMKEVLFYLGQYIMTKRLYDEKQQHIVYCSNDLLGDLFGVPSFSVKEHRKIYTMIYRNLVVVNQQESSDSGTSVSENRCHLEGGSDQKDLV
binds: [1] | [2] | [3]
